{
  "source": "patent US20230013244A1",
  "about": "(BioIncept, LLC, priority 2014, published 2023)",
  "key": {"[1]": {"molecular_target": "Tropomyosin alpha-4 chain (human) (UniProt P67936)", "sequence (P67936 2-248 limits assumed)": "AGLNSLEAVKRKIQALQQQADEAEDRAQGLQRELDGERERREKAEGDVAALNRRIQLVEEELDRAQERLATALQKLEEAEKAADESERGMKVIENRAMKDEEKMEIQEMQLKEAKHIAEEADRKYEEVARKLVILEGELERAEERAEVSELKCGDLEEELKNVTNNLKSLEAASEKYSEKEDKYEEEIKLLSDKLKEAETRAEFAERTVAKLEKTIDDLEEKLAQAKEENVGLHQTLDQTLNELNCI", "assay": "PIF affinity column + LC-MS/MS, CD14+ cell lysate"}, "[2]": {"molecular_target": "Tubulin alpha-4A chain (human) (UniProt P68366)", "assay": "PIF affinity column + LC-MS/MS, CD14+ cell lysate"}, "Tropomodulin-3 (human)": {"molecular_target": "Tropomodulin-3 (human) (UniProt Q9NYL9)", "sequence (Q9NYL9 whole entry)": "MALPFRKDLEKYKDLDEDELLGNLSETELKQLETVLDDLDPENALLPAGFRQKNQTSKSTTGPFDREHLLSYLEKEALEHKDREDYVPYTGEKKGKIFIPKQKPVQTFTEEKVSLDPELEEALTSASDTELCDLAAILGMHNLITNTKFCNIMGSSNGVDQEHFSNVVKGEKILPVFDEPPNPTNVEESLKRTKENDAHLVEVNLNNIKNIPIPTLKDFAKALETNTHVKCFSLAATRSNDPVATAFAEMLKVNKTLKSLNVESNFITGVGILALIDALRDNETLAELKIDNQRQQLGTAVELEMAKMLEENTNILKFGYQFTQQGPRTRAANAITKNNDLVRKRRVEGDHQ", "assay": "PIF affinity column + LC-MS/MS, CD14+ cell lysate"}, "Cofilin-1 (human) [3]": {"molecular_target": "Cofilin-1 (human) (UniProt P23528)", "sequence (P23528 2-166 limits assumed)": "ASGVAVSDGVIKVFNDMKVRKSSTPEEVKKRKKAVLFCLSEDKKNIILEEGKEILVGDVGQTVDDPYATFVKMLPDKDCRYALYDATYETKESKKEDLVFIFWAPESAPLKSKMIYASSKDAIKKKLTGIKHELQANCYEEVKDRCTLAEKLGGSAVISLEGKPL", "assay": "PIF affinity column + LC-MS/MS, CD4+ cell lysate"}, "[4]": {"molecular_target": "Isoform 2 of Protein SET (human) (UniProt Q01105)", "sequence (Q01105 other isoform, or with tags, fused parts or gaps limits assumed)": "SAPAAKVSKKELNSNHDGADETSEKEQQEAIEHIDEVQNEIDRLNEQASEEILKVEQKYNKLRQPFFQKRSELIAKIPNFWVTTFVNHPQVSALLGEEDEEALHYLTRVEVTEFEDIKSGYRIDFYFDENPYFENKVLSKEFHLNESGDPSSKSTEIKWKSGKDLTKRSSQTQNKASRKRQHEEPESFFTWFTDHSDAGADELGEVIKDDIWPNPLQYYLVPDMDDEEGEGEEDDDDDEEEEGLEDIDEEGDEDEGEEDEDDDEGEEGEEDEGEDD", "assay": "PIF affinity column + LC-MS/MS, CD4+ cell lysate"}, "[5]": {"molecular_target": "Actin, cytoplasmic 1 (human) (UniProt P60709)", "assay": "PIF affinity column + LC-MS/MS, CD4+ cell lysate"}, "[6]": {"molecular_target": "Tropomyosin alpha-4 chain (human) (UniProt P67936)", "assay": "PIF affinity column + LC-MS/MS, CD4+ cell lysate"}, "[7]": {"molecular_target": "Serine/arginine-rich-splicing factor 2 (human) (UniProt Q01130)", "sequence (Q01130 2-221 limits assumed)": "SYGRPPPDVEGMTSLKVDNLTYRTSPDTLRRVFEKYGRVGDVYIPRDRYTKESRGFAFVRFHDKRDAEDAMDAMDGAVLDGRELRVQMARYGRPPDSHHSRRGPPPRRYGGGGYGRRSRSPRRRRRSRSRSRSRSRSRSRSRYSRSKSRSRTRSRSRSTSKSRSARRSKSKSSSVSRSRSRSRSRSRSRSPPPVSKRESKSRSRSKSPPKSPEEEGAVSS", "assay": "PIF affinity column + LC-MS/MS, CD4+ cell lysate"}, "Thymosin alpha-1 (human) [8]": {"molecular_target": "Thymosin alpha-1 (human) (UniProt P06454)", "sequence (P06454 other isoform, or with tags, fused parts or gaps limits assumed)": "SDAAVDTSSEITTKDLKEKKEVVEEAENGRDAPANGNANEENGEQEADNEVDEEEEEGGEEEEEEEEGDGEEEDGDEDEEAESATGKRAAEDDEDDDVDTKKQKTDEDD", "assay": "PIF affinity column + LC-MS/MS, CD4+ cell lysate"}, "Serum albumin (human) [9]": {"molecular_target": "Serum albumin (human) (UniProt P02768)", "assay": "PIF affinity column + LC-MS/MS, CD4+ cell lysate"}, "[10]": {"molecular_target": "Isoform 2 of Heat shock protein HSP 90-alpha (human) (UniProt P07900)", "assay": "PIF affinity column + LC-MS/MS, CD4+ cell lysate"}, "Calreticulin (human)": {"molecular_target": "Calreticulin (human) (UniProt P27797)", "sequence (P27797 18-417 limits assumed)": "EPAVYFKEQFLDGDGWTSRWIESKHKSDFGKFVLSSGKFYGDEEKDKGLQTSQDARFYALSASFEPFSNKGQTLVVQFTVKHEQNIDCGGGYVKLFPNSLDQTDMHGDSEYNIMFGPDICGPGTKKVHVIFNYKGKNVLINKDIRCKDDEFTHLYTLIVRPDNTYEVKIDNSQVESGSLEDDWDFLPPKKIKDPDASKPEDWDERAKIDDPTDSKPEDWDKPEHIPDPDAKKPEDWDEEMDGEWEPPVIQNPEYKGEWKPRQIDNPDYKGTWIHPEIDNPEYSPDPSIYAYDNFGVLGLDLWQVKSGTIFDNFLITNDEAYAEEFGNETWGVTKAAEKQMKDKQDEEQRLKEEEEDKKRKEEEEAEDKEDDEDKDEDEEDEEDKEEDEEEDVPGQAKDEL", "assay": "PIF affinity column + LC-MS/MS, CD4+ cell lysate"}, "[11]": {"molecular_target": "Cartilage oligomeric matrix protein (human) (UniProt P49747)", "sequence (P49747 21-757 limits assumed)": "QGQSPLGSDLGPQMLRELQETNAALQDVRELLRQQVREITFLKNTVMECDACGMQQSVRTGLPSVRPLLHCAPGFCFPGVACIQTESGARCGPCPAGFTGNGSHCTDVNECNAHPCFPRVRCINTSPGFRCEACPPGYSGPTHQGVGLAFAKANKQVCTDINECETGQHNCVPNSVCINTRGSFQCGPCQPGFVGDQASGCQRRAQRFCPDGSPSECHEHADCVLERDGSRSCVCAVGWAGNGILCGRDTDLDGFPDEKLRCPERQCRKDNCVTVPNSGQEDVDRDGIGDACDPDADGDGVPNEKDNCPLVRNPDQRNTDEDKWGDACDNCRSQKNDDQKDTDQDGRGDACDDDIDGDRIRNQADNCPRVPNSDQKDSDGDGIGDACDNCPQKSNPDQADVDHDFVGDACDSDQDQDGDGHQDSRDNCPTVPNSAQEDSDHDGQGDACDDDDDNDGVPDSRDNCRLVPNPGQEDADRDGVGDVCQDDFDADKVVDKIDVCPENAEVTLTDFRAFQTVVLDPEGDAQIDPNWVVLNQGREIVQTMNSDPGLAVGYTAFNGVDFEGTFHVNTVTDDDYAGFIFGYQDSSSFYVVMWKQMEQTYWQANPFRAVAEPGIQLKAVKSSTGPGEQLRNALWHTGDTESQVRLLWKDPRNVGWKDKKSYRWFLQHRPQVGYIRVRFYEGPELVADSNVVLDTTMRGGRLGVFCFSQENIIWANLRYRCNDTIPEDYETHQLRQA", "assay": "PIF affinity column + LC-MS/MS, CD4+ cell lysate"}, "[12]": {"molecular_target": "Acidic leucine-rich nuclear phosphoprotein 32 family member A (human) (UniProt P39687)", "sequence (P39687 whole entry)": "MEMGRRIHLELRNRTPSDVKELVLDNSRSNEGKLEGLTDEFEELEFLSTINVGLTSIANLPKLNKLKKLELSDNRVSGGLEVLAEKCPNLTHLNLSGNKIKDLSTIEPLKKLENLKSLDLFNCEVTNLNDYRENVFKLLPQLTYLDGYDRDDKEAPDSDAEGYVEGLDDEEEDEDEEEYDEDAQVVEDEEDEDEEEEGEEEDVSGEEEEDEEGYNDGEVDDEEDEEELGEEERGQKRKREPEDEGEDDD", "assay": "PIF affinity column + LC-MS/MS, CD4+ cell lysate"}, "[13]": {"molecular_target": "Glucosidase 2 subunit beta (human) (UniProt P14314)", "sequence (P14314 other isoform, or with tags, fused parts or gaps limits assumed)": "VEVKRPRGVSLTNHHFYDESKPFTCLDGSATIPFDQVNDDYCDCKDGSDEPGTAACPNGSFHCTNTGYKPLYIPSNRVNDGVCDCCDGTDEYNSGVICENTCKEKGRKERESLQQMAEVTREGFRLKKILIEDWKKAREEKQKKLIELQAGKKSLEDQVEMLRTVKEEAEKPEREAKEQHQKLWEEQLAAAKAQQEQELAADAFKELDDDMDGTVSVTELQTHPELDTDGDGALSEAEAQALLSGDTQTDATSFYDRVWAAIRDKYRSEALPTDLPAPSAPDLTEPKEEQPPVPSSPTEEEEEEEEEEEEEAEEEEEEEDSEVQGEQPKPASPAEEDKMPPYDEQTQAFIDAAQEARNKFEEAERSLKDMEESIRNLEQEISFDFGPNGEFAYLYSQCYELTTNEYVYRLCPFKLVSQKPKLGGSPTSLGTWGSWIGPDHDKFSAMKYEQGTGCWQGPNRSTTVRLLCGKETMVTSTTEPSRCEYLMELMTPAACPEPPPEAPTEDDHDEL", "assay": "PIF affinity column + LC-MS/MS, CD4+ cell lysate"}, "[14]": {"molecular_target": "Hepatoma-derived growth factor (human) (UniProt P51858)", "assay": "PIF affinity column + LC-MS/MS, CD8+ cell lysate"}, "Cofilin-1 (human) [15]": {"molecular_target": "Cofilin-1 (human) (UniProt P23528)", "assay": "PIF affinity column + LC-MS/MS, CD8+ cell lysate"}, "[16]": {"molecular_target": "Nuclease-sensitive element-binding protein 1 (Fragment) (human) (UniProt P67809)", "sequence (P67809 2-324 limits assumed)": "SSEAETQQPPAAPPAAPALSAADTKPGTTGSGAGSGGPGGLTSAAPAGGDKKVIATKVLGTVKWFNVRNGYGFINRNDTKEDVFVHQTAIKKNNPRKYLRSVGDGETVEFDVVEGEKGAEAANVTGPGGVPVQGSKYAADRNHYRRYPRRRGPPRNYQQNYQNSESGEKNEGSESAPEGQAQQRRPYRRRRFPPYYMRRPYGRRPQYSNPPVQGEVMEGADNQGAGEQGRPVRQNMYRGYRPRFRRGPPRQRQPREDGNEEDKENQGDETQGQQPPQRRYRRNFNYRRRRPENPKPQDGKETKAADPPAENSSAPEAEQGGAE", "assay": "PIF affinity column + LC-MS/MS, CD8+ cell lysate"}, "[17]": {"molecular_target": "Isoform 2 of Protein SET (human) (UniProt Q01105)", "assay": "PIF affinity column + LC-MS/MS, CD8+ cell lysate"}, "[18]": {"molecular_target": "Tubulin alpha-1C chain (human) (UniProt Q9BQE3)", "sequence (Q9BQE3 whole entry)": "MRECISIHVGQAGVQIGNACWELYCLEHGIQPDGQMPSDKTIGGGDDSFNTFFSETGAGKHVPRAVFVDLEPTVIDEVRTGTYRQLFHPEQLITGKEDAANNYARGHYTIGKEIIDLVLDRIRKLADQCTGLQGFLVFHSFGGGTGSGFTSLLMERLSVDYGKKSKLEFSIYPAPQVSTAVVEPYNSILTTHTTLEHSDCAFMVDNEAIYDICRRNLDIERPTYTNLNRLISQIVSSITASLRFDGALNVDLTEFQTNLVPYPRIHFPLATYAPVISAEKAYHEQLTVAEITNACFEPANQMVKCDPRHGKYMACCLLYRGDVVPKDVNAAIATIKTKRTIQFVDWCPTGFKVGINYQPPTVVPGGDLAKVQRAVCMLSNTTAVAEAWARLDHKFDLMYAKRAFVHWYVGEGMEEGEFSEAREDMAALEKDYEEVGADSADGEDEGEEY", "assay": "PIF affinity column + LC-MS/MS, CD8+ cell lysate"}, "[19]": {"molecular_target": "Actin, cytoplasmic 1 (human) (UniProt P60709)", "assay": "PIF affinity column + LC-MS/MS, CD8+ cell lysate"}, "[20]": {"molecular_target": "Serine/arginine-rich-splicing factor 1 (human) (UniProt Q07955)", "assay": "PIF affinity column + LC-MS/MS, CD8+ cell lysate"}, "Thymosin alpha-1 (human) [21]": {"molecular_target": "Thymosin alpha-1 (human) (UniProt P06454)", "assay": "PIF affinity column + LC-MS/MS, CD8+ cell lysate"}, "Serum albumin (human) [22]": {"molecular_target": "Serum albumin (human) (UniProt P02768)", "assay": "PIF affinity column + LC-MS/MS, CD8+ cell lysate"}, "Talin-1 (human)": {"molecular_target": "Talin-1 (human) (UniProt Q9Y490)", "assay": "PIF affinity column + LC-MS/MS, CD8+ cell lysate"}, "[23]": {"molecular_target": "Cartilage oligomeric matrix protein (human) (UniProt P49747)", "assay": "PIF affinity column + LC-MS/MS, CD8+ cell lysate"}, "Nucleolin (human)": {"molecular_target": "Nucleolin (human) (UniProt P19338)", "sequence (P19338 2-710 limits assumed)": "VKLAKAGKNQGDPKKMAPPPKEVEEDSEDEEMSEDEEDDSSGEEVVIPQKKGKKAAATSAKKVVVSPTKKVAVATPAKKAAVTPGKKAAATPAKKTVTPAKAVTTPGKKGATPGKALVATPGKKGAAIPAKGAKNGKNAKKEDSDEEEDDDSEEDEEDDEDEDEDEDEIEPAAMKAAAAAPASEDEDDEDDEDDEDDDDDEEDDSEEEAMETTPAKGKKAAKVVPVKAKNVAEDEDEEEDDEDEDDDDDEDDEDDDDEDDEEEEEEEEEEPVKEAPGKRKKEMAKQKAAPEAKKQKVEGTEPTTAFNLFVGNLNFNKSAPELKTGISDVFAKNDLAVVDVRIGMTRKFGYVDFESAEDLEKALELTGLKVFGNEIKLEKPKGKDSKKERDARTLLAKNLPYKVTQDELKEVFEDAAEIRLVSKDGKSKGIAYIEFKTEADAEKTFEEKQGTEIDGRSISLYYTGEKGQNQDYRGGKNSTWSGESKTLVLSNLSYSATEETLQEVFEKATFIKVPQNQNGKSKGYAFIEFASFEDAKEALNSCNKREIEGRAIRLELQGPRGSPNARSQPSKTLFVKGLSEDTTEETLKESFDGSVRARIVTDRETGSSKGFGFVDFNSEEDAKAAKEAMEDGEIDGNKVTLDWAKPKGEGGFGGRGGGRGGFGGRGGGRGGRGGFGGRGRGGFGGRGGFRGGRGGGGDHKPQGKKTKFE", "assay": "PIF affinity column + LC-MS/MS, CD8+ cell lysate"}},
  "data": [
    {"substance": "PIF-resin (PIF15 affinity ligand on agarose) (peptide)", "values": [
      {"measurement": "Ave", "setting": "[1]", "result": 8},
      {"measurement": "Inject 1", "setting": "[1]", "result": 8},
      {"measurement": "Inject 3", "setting": "[1]", "result": 8},
      {"measurement": "Inject 3", "setting": "[2]", "result": 1},
      {"measurement": "Ave", "setting": "Tropomodulin-3 (human)", "result": 1},
      {"measurement": "Inject 1", "setting": "Tropomodulin-3 (human)", "result": 1},
      {"measurement": "Inject 3", "setting": "Tropomodulin-3 (human)", "result": 1},
      {"measurement": "Ave", "setting": "Cofilin-1 (human) [3]", "result": 1},
      {"measurement": "Inject 1", "setting": "Cofilin-1 (human) [3]", "result": 1},
      {"measurement": "Inject 2", "setting": "Cofilin-1 (human) [3]", "result": 1},
      {"measurement": "Inject 3", "setting": "Cofilin-1 (human) [3]", "result": 1},
      {"measurement": "Ave", "setting": "[4]", "result": 4},
      {"measurement": "Inject 2", "setting": "[4]", "result": 4},
      {"measurement": "Inject 3", "setting": "[4]", "result": 4},
      {"measurement": "Ave", "setting": "[5]", "result": 2},
      {"measurement": "Inject 1", "setting": "[5]", "result": 2},
      {"measurement": "Inject 2", "setting": "[5]", "result": 2},
      {"measurement": "Inject 3", "setting": "[5]", "result": 2},
      {"measurement": "Ave", "setting": "[6]", "result": 4},
      {"measurement": "Inject 1", "setting": "[6]", "result": 4},
      {"measurement": "Inject 2", "setting": "[6]", "result": 4},
      {"measurement": "Inject 3", "setting": "[6]", "result": 4},
      {"measurement": "Inject 1", "setting": "[7]", "result": 1},
      {"measurement": "Ave", "setting": "Thymosin alpha-1 (human) [8]", "result": 5},
      {"measurement": "Inject 1", "setting": "Thymosin alpha-1 (human) [8]", "result": 4},
      {"measurement": "Inject 2", "setting": "Thymosin alpha-1 (human) [8]", "result": 5},
      {"measurement": "Ave", "setting": "Serum albumin (human) [9]", "result": 8},
      {"measurement": "Inject 1", "setting": "Serum albumin (human) [9]", "result": 4},
      {"measurement": "Inject 3", "setting": "Serum albumin (human) [9]", "result": 12},
      {"measurement": "Ave", "setting": "[10]", "result": 4},
      {"measurement": "Inject 1", "setting": "[10]", "result": 4},
      {"measurement": "Inject 2", "setting": "[10]", "result": 4},
      {"measurement": "Inject 3", "setting": "[10]", "result": 4},
      {"measurement": "Ave", "setting": "Calreticulin (human)", "result": 4},
      {"measurement": "Inject 1", "setting": "Calreticulin (human)", "result": 4},
      {"measurement": "Inject 2", "setting": "Calreticulin (human)", "result": 4},
      {"measurement": "Inject 3", "setting": "Calreticulin (human)", "result": 4},
      {"measurement": "Ave", "setting": "[11]", "result": 10},
      {"measurement": "Inject 1", "setting": "[11]", "result": 10},
      {"measurement": "Inject 2", "setting": "[11]", "result": 10},
      {"measurement": "Inject 3", "setting": "[11]", "result": 11},
      {"measurement": "Ave", "setting": "[12]", "result": 1},
      {"measurement": "Inject 1", "setting": "[12]", "result": 1},
      {"measurement": "Inject 2", "setting": "[12]", "result": 1},
      {"measurement": "Inject 3", "setting": "[12]", "result": 1},
      {"measurement": "Ave", "setting": "[13]", "result": 1},
      {"measurement": "Inject 1", "setting": "[13]", "result": 1},
      {"measurement": "Inject 2", "setting": "[13]", "result": 1},
      {"measurement": "Inject 3", "setting": "[13]", "result": 1},
      {"measurement": "Ave", "setting": "[14]", "result": 1},
      {"measurement": "Inject 1", "setting": "[14]", "result": 1},
      {"measurement": "Inject 2", "setting": "[14]", "result": 1},
      {"measurement": "Inject 3", "setting": "[14]", "result": 1},
      {"measurement": "Ave", "setting": "Cofilin-1 (human) [15]", "result": 1},
      {"measurement": "Inject 1", "setting": "Cofilin-1 (human) [15]", "result": 1},
      {"measurement": "Inject 2", "setting": "Cofilin-1 (human) [15]", "result": 1},
      {"measurement": "Inject 3", "setting": "Cofilin-1 (human) [15]", "result": 1},
      {"measurement": "Ave", "setting": "[16]", "result": 1},
      {"measurement": "Inject 1", "setting": "[16]", "result": 1},
      {"measurement": "Inject 2", "setting": "[16]", "result": 1},
      {"measurement": "Inject 3", "setting": "[16]", "result": 1},
      {"measurement": "Ave", "setting": "[17]", "result": 1},
      {"measurement": "Inject 1", "setting": "[17]", "result": 1},
      {"measurement": "Inject 2", "setting": "[17]", "result": 1},
      {"measurement": "Inject 3", "setting": "[17]", "result": 1},
      {"measurement": "Ave", "setting": "[18]", "result": 1},
      {"measurement": "Inject 1", "setting": "[18]", "result": 1},
      {"measurement": "Inject 2", "setting": "[18]", "result": 1},
      {"measurement": "Inject 3", "setting": "[18]", "result": 1},
      {"measurement": "Ave", "setting": "[19]", "result": 3},
      {"measurement": "Inject 1", "setting": "[19]", "result": 3},
      {"measurement": "Inject 2", "setting": "[19]", "result": 3},
      {"measurement": "Inject 3", "setting": "[19]", "result": 3},
      {"measurement": "Ave", "setting": "[20]", "result": 1},
      {"measurement": "Inject 1", "setting": "[20]", "result": 1},
      {"measurement": "Inject 2", "setting": "[20]", "result": 1},
      {"measurement": "Inject 3", "setting": "[20]", "result": 1},
      {"measurement": "Inject 3", "setting": "Thymosin alpha-1 (human) [21]", "result": 4},
      {"measurement": "Inject 3", "setting": "Serum albumin (human) [22]", "result": 8},
      {"measurement": "Ave", "setting": "Talin-1 (human)", "result": 1},
      {"measurement": "Inject 1", "setting": "Talin-1 (human)", "result": 1},
      {"measurement": "Inject 2", "setting": "Talin-1 (human)", "result": 1},
      {"measurement": "Inject 3", "setting": "Talin-1 (human)", "result": 1},
      {"measurement": "Ave", "setting": "[23]", "result": 4},
      {"measurement": "Inject 1", "setting": "[23]", "result": 4},
      {"measurement": "Inject 2", "setting": "[23]", "result": 4},
      {"measurement": "Inject 3", "setting": "[23]", "result": 5},
      {"measurement": "Ave", "setting": "Nucleolin (human)", "result": 1},
      {"measurement": "Inject 1", "setting": "Nucleolin (human)", "result": 1},
      {"measurement": "Inject 2", "setting": "Nucleolin (human)", "result": 1},
      {"measurement": "Inject 3", "setting": "Nucleolin (human)", "result": 1}
    ]}
  ]
}
